T1: Full-length human CTGF (human, UniProt P29279 27-349)
T1 construct: Corresponds to NCBI NP_001892.1 with the signal peptide omitted; purchased from R&D Systems; also called hCTGF full length; full length CTGF
T1 sequence: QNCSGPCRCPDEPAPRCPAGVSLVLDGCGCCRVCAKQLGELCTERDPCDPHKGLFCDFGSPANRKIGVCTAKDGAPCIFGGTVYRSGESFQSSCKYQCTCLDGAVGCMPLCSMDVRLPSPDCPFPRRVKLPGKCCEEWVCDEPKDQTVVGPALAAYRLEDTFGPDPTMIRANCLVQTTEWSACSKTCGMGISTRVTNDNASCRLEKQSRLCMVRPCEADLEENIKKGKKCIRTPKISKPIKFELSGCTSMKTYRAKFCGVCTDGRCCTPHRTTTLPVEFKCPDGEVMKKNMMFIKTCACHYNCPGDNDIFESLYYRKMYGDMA


Target: T1, Full-length human CTGF
Assay: SPR, full length CTGF

Row | binding result | Kd [pM] | Binder
1 | no binding | – | A33 (antibody, human IgG1, kappa, L234A L235A, V domains shown) VH: EVQLVESGGGLVQPGGSLRLSCAASGFTFSDYYMAWVRQAPGKGLEWVANINYEGSRTDLLESLKSRFTISRDNAKNSVYLQMNSLRAEDTAVYYCARDTSRGSYFDVWGAGTTVTVSS VL: VVMTQTPLSLSVSLGDQASISCKSSQSIVHYNENTYLEWYLQKPGQSPQLLIYKVSSRFSGVPDRFSGSGSGTDFTLKISRVEAEDLGVYYCFQGSHFPLTFGQGTKLEIKR
2 | – | 230 | A3 (antibody, human IgG1, kappa, L234A L235A, V domains shown) VH: EVQLVESGGGLVQPGGSLRLSCAASGFTFSDYYMAWVRQAPGKGLEWVANINYEGSRTDLLASLKSRFTISRDNAKNSVYLQMNSLRAEDTAVYYCARDTSRGSYFDVWGAGTTVTVSS VL: VVMTQTPLSLSVSLGDQASISCKSSQSIVHYNEKTYLEWYLQKPGQSPQLLIYKVSSRFSGVPDRFSGSGSGTDFTLKISRVEAEDLGVYYCFQGSHFPLTFGQGTKLEIKR
3 | – | 220 | A14 (antibody, human IgG1, kappa, L234A L235A) light: VVMTQTPLSLSVSLGDQASISCKSSQSIVHYNEKTYLEWYLQKPGQSPQLLIYKVSSRASGVPDRFSGSGSGTDFTLKISRVEAEDLGVYYCFQGSHFPLTFGQGTKLEIKRTVAAPSVFIFPPSDEQLKSGTASVVCLLNNFYPREAKVQWKVDNALQSGNSQESVTEQDSKDSTYSLSSTLTLSKADYEKHKVYACEVTHQGLSSPVTKSFNRGEC heavy: not shown
4 | – | 170 | A11 (antibody, human IgG1, kappa, L234A L235A) light: VVMTQTPLSLSVSLGDQASISCKSSQSIVHYNEKTYLEWYLQKPGQSPQLLIYKVSSRASGVPDRFSGSGSGTDFTLKISRVEAEDLGVYYCFQGSHFPLTFGQGTKLEIKRTVAAPSVFIFPPSDEQLKSGTASVVCLLNNFYPREAKVQWKVDNALQSGNSQESVTEQDSKDSTYSLSSTLTLSKADYEKHKVYACEVTHQGLSSPVTKSFNRGEC heavy: not shown
5 | – | 170 | A19 (antibody, human IgG1, kappa, L234A L235A, V domains shown) VH: EVQLVESGGGLVQPGGSLRLSCAASGFTFSDYYMAWVRQAPGKGLEWVANINYEGSRTDLLASLKSRFTISRDNAKNSVYLQMNSLRAEDTAVYYCARDTSRGSYFDVWGAGTTVTVSS VL: VVMTQTPLSLSVSLGDQASISCKSSQSIVHYNGKTYLEWYLQKPGQSPQLLIYKVSSRFSGVPDRFSGSGSGTDFTLKISRVEAEDLGVYYCFQGSHFPLTFGQGTKLEIKR
6 | – | 340 | A8 (antibody, human IgG1, kappa, L234A L235A) light: VVMTQTPLSLSVSLGDQASISCKSSQSIVHYNEKTYLEWYLQKPGQSPQLLIYKVSSRFSGVPDRFSGSGSGTDFTLKISRVEAEDLGVYYCFQGSHFPLTFGQGTKLEIKRTVAAPSVFIFPPSDEQLKSGTASVVCLLNNFYPREAKVQWKVDNALQSGNSQESVTEQDSKDSTYSLSSTLTLSKADYEKHKVYACEVTHQGLSSPVTKSFNRGEC heavy: not shown
7 | – | 290 | A1 (antibody, human IgG1, kappa, L234A L235A, V domains shown) VH: EVQLVESGGGLVQPGGSLRLSCAASGFTFSDYYMAWVRQAPGKGLEWVANINYEGSRTDLLESLKSRFTISRDNAKNSVYLQMNSLRAEDTAVYYCARDTSRGSYFDVWGAGTTVTVSS VL: VVMTQTPLSLSVSLGDQASISCKSSQSIVHYNEKTYLEWYLQKPGQSPQLLIYKVSSRFSGVPDRFSGSGSGTDFTLKISRVEAEDLGVYYCFQGSHFPLTFGQGTKLEIKR
8 | – | 320 | A6 (antibody, human IgG1, kappa, L234A L235A, V domains shown) VH: EVQLVESGGGLVQPGGSLRLSCAASGFTFSDYYMAWVRQAPGKGLEWVANINYEGSRTDLLDSLKSRFTISRDNAKNSVYLQMNSLRAEDTAVYYCARDTSRGSYFDVWGAGTTVTVSS VL: VVMTQTPLSLSVSLGDQASISCKSSQSIVHYNEKTYLEWYLQKPGQSPQLLIYKVSSRFSGVPDRFSGSGSGTDFTLKISRVEAEDLGVYYCFQGSHFPLTFGQGTKLEIKR
9 | – | 240 | A16 (antibody, human IgG1, kappa, L234A L235A) light: VVMTQTPLSLSVSLGDQASISCKSSQSIVHYNEKTYLEWYLQKPGQSPQLLIYKVSSRASGVPDRFSGSGSGTDFTLKISRVEAEDLGVYYCFQGSHFPLTFGQGTKLEIKRTVAAPSVFIFPPSDEQLKSGTASVVCLLNNFYPREAKVQWKVDNALQSGNSQESVTEQDSKDSTYSLSSTLTLSKADYEKHKVYACEVTHQGLSSPVTKSFNRGEC heavy: not shown
10 | – | 320 | A5 (antibody, human IgG1, kappa, L234A L235A) light: VVMTQTPLSLSVSLGDQASISCKSSQSIVHYNEKTYLEWYLQKPGQSPQLLIYKVSSRFSGVPDRFSGSGSGTDFTLKISRVEAEDLGVYYCFQGSHFPLTFGQGTKLEIKRTVAAPSVFIFPPSDEQLKSGTASVVCLLNNFYPREAKVQWKVDNALQSGNSQESVTEQDSKDSTYSLSSTLTLSKADYEKHKVYACEVTHQGLSSPVTKSFNRGEC heavy: not shown
11 | – | 210 | A9 (antibody, human IgG1, kappa, L234A L235A) light: VVMTQTPLSLSVSLGDQASISCKSSQSIVHYNEKTYLEWYLQKPGQSPQLLIYKVSSRASGVPDRFSGSGSGTDFTLKISRVEAEDLGVYYCFQGSHFPLTFGQGTKLEIKRTVAAPSVFIFPPSDEQLKSGTASVVCLLNNFYPREAKVQWKVDNALQSGNSQESVTEQDSKDSTYSLSSTLTLSKADYEKHKVYACEVTHQGLSSPVTKSFNRGEC heavy: not shown
12 | – | 250 | A21 (antibody, human IgG1, kappa, L234A L235A) light: VVMTQTPLSLSVSLGDQASISCKSSQSIVHYNGKTYLEWYLQKPGQSPQLLIYKVSSRFSGVPDRFSGSGSGTDFTLKISRVEAEDLGVYYCFQGSHFPLTFGQGTKLEIKRTVAAPSVFIFPPSDEQLKSGTASVVCLLNNFYPREAKVQWKVDNALQSGNSQESVTEQDSKDSTYSLSSTLTLSKADYEKHKVYACEVTHQGLSSPVTKSFNRGEC heavy: not shown
13 | – | 170 | A12 (antibody, human IgG1, kappa, L234A L235A) light: VVMTQTPLSLSVSLGDQASISCKSSQSIVHYNEKTYLEWYLQKPGQSPQLLIYKVSSRASGVPDRFSGSGSGTDFTLKISRVEAEDLGVYYCFQGSHFPLTFGQGTKLEIKRTVAAPSVFIFPPSDEQLKSGTASVVCLLNNFYPREAKVQWKVDNALQSGNSQESVTEQDSKDSTYSLSSTLTLSKADYEKHKVYACEVTHQGLSSPVTKSFNRGEC heavy: not shown
14 | – | 260 | A15 (antibody, human IgG1, kappa, L234A L235A) light: VVMTQTPLSLSVSLGDQASISCKSSQSIVHYNEKTYLEWYLQKPGQSPQLLIYKVSSRASGVPDRFSGSGSGTDFTLKISRVEAEDLGVYYCFQGSHFPLTFGQGTKLEIKRTVAAPSVFIFPPSDEQLKSGTASVVCLLNNFYPREAKVQWKVDNALQSGNSQESVTEQDSKDSTYSLSSTLTLSKADYEKHKVYACEVTHQGLSSPVTKSFNRGEC heavy: not shown
15 | – | 190 | A10 (antibody, human IgG1, kappa, L234A L235A) light: VVMTQTPLSLSVSLGDQASISCKSSQSIVHYNEKTYLEWYLQKPGQSPQLLIYKVSSRASGVPDRFSGSGSGTDFTLKISRVEAEDLGVYYCFQGSHFPLTFGQGTKLEIKRTVAAPSVFIFPPSDEQLKSGTASVVCLLNNFYPREAKVQWKVDNALQSGNSQESVTEQDSKDSTYSLSSTLTLSKADYEKHKVYACEVTHQGLSSPVTKSFNRGEC heavy: not shown
16 | – | 180 | A20 (antibody, human IgG1, kappa, L234A L235A, V domains shown) VH: EVQLVESGGGLVQPGGSLRLSCAASGFTFSDYYMAWVRQAPGKGLEWVANINYYGSRTDLLASLKSRFTISRDNAKNSVYLQMNSLRAEDTAVYYCARDTSRGSYFDVWGAGTTVTVSS VL: VVMTQTPLSLSVSLGDQASISCKSSQSIVHYNGKTYLEWYLQKPGQSPQLLIYKVSSRFSGVPDRFSGSGSGTDFTLKISRVEAEDLGVYYCFQGSHFPLTFGQGTKLEIKR
17 | – | 190 | A18 (antibody, human IgG1, kappa, L234A L235A, V domains shown) VH: EVQLVESGGGLVQPGGSLRLSCAASGFTFSDYYMAWVRQAPGKGLEWVANINYYGSRTDLLESLKSRFTISRDNAKNSVYLQMNSLRAEDTAVYYCARDTSRGSYFDVWGAGTTVTVSS VL: VVMTQTPLSLSVSLGDQASISCKSSQSIVHYNGKTYLEWYLQKPGQSPQLLIYKVSSRFSGVPDRFSGSGSGTDFTLKISRVEAEDLGVYYCFQGSHFPLTFGQGTKLEIKR
18 | – | 220 | A4 (antibody, human IgG1, kappa, L234A L235A, V domains shown) VH: EVQLVESGGGLVQPGGSLRLSCAASGFTFSDYYMAWVRQAPGKGLEWVANINYYGSRTDLLASLKSRFTISRDNAKNSVYLQMNSLRAEDTAVYYCARDTSRGSYFDVWGAGTTVTVSS VL: VVMTQTPLSLSVSLGDQASISCKSSQSIVHYNEKTYLEWYLQKPGQSPQLLIYKVSSRFSGVPDRFSGSGSGTDFTLKISRVEAEDLGVYYCFQGSHFPLTFGQGTKLEIKR
19 | – | 250 | A2 (antibody, human IgG1, kappa, L234A L235A, V domains shown) VH: EVQLVESGGGLVQPGGSLRLSCAASGFTFSDYYMAWVRQAPGKGLEWVANINYYGSRTDLLESLKSRFTISRDNAKNSVYLQMNSLRAEDTAVYYCARDTSRGSYFDVWGAGTTVTVSS VL: VVMTQTPLSLSVSLGDQASISCKSSQSIVHYNEKTYLEWYLQKPGQSPQLLIYKVSSRFSGVPDRFSGSGSGTDFTLKISRVEAEDLGVYYCFQGSHFPLTFGQGTKLEIKR
20 | – | 330 | A7 (antibody, human IgG1, kappa, L234A L235A, V domains shown) VH: EVQLVESGGGLVQPGGSLRLSCAASGFTFSDYYMAWVRQAPGKGLEWVANINYDGSRTDLLESLKSRFTISRDNAKNSVYLQMNSLRAEDTAVYYCARDTSRGSYFDVWGAGTTVTVSS VL: VVMTQTPLSLSVSLGDQASISCKSSQSIVHYNEKTYLEWYLQKPGQSPQLLIYKVSSRFSGVPDRFSGSGSGTDFTLKISRVEAEDLGVYYCFQGSHFPLTFGQGTKLEIKR
21 | – | 200 | A17 (antibody, human IgG1, kappa, L234A L235A, V domains shown) VH: EVQLVESGGGLVQPGGSLRLSCAASGFTFSDYYMAWVRQAPGKGLEWVANINYEGSRTDLLESLKSRFTISRDNAKNSVYLQMNSLRAEDTAVYYCARDTSRGSYFDVWGAGTTVTVSS VL: VVMTQTPLSLSVSLGDQASISCKSSQSIVHYNGKTYLEWYLQKPGQSPQLLIYKVSSRFSGVPDRFSGSGSGTDFTLKISRVEAEDLGVYYCFQGSHFPLTFGQGTKLEIKR

— patent US20250277020A1 (Boehringer Ingelheim, published 2025)
